Reference: patent publication US20020197616A1 (REGENTS OF THE UNIVERSITY OF MICHIGAN, published 2002)

Biological target: the molecule itself
Assay: method not described ('our observations'); self-association

Binder | binding result
Nod2 lacking the LRRs (1-744) (other, also called Nod2ΔLRR; Nod2 (1-744)) MGEEGGSASHDEEERASVLLGHSPGCEMCSQEAFQAQRSQLVELLVSGSLEGFESVLDWLLSWEVLSWEDYEGFHLLGQPLSHLARRLLDTVWNKGTWACQKLIAAAQEAQADSQSPKLHGCWDPHSLHPARDLQSHRPAIVRRLHSHVENMLDLAWERGFVSQYECDEIRLPIFTPSQRARRLLDLATVKANGLAAFLLQHVQELPVPLALPLEAATCKKYMAKLRTTVSAQSRFLSTYDGAETLCLEDIYTENVLEVWADVGMAGPPQKSPATLGLEELFSTPGHLNDDADTVLVVGEAGSGKSTLLQRLHLLWAAGQDFQEFLFVFPFSCRQLQCMAKPLSVRTLLFEHCCWPDVGQEDIFQLLLDHPDRVLLTFDGFDEFKFRFTDRERHCSPTDPTSVQTLLFNLLQGNLLKNARKVVTSRPAAVSAFLRKYIRTEFNLKGFSEQGIELYLRKRHHEPGVADRLIRLLQETSALHGLCHLPVFSWMVSKCHQELLLQEGGSPKTTTDMYLLILQHFLLHATPPDSASQGLGPSLLRGRLPTLLHLGRLALWGLGMCCYVFSAQQLQAAQVSPDDISLGFLVRAKGVVPGSTAPLEFLHITFQCFFAAFYLALSADVPPALLRHLFNCGRPGNSPMARLLPTMCIQASEGKDSSVAALLQKAEPHNLQITAAFLAGLLSREHWGLLAECQTSEKALLRRQACARWCLARSLRKHFHSIPPAAPGEAKSVHAMPGFIWLIR | binds

biological target: T1, Nod2 (wild-type, HA-tagged) (human, UniProt Q9HC29 1-1040); assay: co-immunoprecipitation, HEK293T extracts
T1 construct: Expressed in HEK293T cells and tested in cell extracts by co-immunoprecipitation; also called Nod2a; wt Nod2; not shown: HA tag; the plasmid is named both pcDNA3-Nod2-HA and pcDNA3-HA-Nod2, so the end that carries the ta
T1 sequence (Q9HC29 whole entry): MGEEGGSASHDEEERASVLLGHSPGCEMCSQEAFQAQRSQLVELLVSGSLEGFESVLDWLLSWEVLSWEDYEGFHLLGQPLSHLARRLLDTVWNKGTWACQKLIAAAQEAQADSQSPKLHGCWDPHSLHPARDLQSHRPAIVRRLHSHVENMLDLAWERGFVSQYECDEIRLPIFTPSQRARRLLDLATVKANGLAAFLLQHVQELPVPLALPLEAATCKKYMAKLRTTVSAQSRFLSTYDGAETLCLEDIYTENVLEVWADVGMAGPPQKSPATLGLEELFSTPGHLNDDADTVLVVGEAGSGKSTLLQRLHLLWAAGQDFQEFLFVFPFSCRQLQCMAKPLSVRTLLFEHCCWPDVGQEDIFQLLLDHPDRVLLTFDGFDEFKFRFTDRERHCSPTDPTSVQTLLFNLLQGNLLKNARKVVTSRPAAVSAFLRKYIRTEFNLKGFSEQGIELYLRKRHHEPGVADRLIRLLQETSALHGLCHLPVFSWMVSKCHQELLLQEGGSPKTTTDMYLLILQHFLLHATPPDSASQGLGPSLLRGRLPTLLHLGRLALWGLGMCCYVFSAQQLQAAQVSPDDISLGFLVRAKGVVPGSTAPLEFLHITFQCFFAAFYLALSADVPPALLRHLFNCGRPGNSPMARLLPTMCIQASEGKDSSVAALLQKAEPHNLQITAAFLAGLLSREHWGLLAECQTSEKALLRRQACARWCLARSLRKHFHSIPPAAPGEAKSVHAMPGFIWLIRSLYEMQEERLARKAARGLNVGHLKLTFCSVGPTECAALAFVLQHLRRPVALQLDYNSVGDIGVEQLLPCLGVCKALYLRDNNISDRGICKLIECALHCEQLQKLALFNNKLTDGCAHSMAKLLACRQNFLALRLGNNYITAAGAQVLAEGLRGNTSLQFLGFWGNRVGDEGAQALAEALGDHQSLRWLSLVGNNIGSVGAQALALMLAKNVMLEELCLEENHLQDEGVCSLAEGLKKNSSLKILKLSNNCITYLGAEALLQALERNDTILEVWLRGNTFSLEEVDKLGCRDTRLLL
Excerpt: Proteins co-immunoprecipitated with anti-HA antibody were detected with anti-Flag antibody. […] Proteins in total lysate were detected by anti-Flag and anti-HA monoclonal antibody, respectively. […]

Binder | binding result
caspase-4 (enzyme, UniProt P49662 1-377, looked up, Construct and tag not described) MAEGNHRKKPLKVLESLGKDFLTGVLDNLVEQNVLNWKEEEKKKYYDAKTEDKVRVMADSMQEKQRMAGQMLLQTFFNIDQISPNKKAHPNMEAGPPESGESTDALKLCPHEEFLRLCKERAEEIYPIKERNNRTRLALIICNTEFDHLPPRNGADFDITGMKELLEGLDYSVDVEENLTARDMESALRAFATRPEHKSSDSTFLVLMSHGILEGICGTVHDEKKPDVLLYDTIFQIFNNRNCLSLKDKPKVIIVQACRGANRGELWVRDSPASLEVASSQSSENLEEDAVYKTHVEKDFIAFCSSTPHNVSWRDSTMGSIFITQLITCFQKYSWCCHLEEVFRKVQQSFETPRAKAQMPTIERLSMTRYFYLFPGN | no binding
Bcl-10 (other, UniProt O95999 1-233, looked up, Construct and tag not described) MEPTAPSLTEEDLTEVKKDALENLRVYLCEKIIAERHFDHLRAKKILSREDTEEISCRTSSRKRAGKLLDYLQENPKGLDTLVESIRREKTQNFLIQKITDEVLKLRNIKLEHLKGLKCSSCEPFPDGATNNLSRSNSDESNFSEKLRASTVMYHPEGESSTTPFFSTNSSLNLPVLEVGRTENTIFSSTTLPRPGDPGAPPLPPDLQLEEEGTCANSSEMFLPLRSRTVSRQ | no binding
procaspase-9 (enzyme, UniProt P55211 1-416, looked up, Construct and tag not described) MDEADRRLLRRCRLRLVEELQVDQLWDALLSRELFRPHMIEDIQRAGSGSRRDQARQLIIDLETRGSQALPLFISCLEDTGQDMLASFLRTNRQAAKLSKPTLENLTPVVLRPEIRKPEVLRPETPRPVDIGSGGFGDVGALESLRGNADLAYILSMEPCGHCLIINNVNFCRESGLRTRTGSNIDCEKLRRRFSSLHFMVEVKGDLTAKKMVLALLELAQQDHGALDCCVVVILSHGCQASHLQFPGAVYGTDGCPVSVEKIVNIFNGTSCPSLGGKPKLFFIQACGGEQKDHGFEVASTSPEDESPGSNPEPDATPFQEGLRTFDQLDAISSLPTPSDIFVSYSTFPGFVSWRDPKSGSWYVETLDDIFEQWAHSEDLQSLLLRVANAVSVKGIYKQMPGCFNFLRKKLFFKTS | no binding
IKKβ (enzyme, UniProt O14920 1-756, looked up, Construct and tag not described for this test) MSWSPSLTTQTCGAWEMKERLGTGGFGNVIRWHNQETGEQIAIKQCRQELSPRNRERWCLEIQIMRRLTHPNVVAARDVPEGMQNLAPNDLPLLAMEYCQGGDLRKYLNQFENCCGLREGAILTLLSDIASALRYLHENRIIHRDLKPENIVLQQGEQRLIHKIIDLGYAKELDQGSLCTSFVGTLQYLAPELLEQQKYTVTVDYWSFGTLAFECITGFRPFLPNWQPVQWHSKVRQKSEVDIVVSEDLNGTVKFSSSLPYPNNLNSVLAERLEKWLQLMLMWHPRQRGTDPTYGPNGCFKALDDILNLKLVHILNMVTGTIHTYPVTEDESLQSLKARIQQDTGIPEEDQELLQEAGLALIPDKPATQCISDGKLNEGHTLDMDLVFLFDNSKITYETQISPRPQPESVSCILQEPKRNLAFFQLRKVWGQVWHSIQTLKEDCNRLQQGQRAAMMNLLRNNSCLSKMKNSMASMSQQLKAKLDFFKTSIQIDLEKYSEQTEFGITSDKLLLAWREMEQAVELCGRENEVKLLVERMMALQTDIVDLQRSPMGRKQGGTLDDLEEQARELYRRLREKPRDQRTEGDSQEMVRLLLQAIQSFEKKVRVIYTQLSKTVVCKQKALELLPKVEEVVSLMNEDEKTVVRLQEKRQKELWNLLKIACSKVRGPVSGSPDSMNASRLSQPGQLMSQPSTASNSLPEPAKKSEELVAEAHNLCTLLENAIQDTVREQDQSFTALDWSWLQTEEEEHSCLEQAS | no binding
caspase-1 (enzyme, UniProt P29466 1-404, looked up, Construct and tag not described) MADKVLKEKRKLFIRSMGEGTINGLLDELLQTRVLNKEEMEKVKRENATVMDKTRALIDSVIPKGAQACQICITYICEEDSYLAGTLGLSADQTSGNYLNMQDSQGVLSSFPAPQAVQDNPAMPTSSGSEGNVKLCSLEEAQRIWKQKSAEIYPIMDKSSRTRLALIICNEEFDSIPRRTGAEVDITGMTMLLQNLGYSVDVKKNLTASDMTTELEAFAHRPEHKTSDSTFLVFMSHGIREGICGKKHSEQVPDILQLNAIFNMLNTKNCPSLKDKPKVIIIQACRGDSPGVVWFKDSVGVSGNLSLPTTEEFEDDAIKKAHIEKDFIAFCSSTPDNVSWRHPTMGSVFIGRLIEHMQEYACSCDVEEIFRKVRFSFEQPDGRAQMPTTERVTLTRCFYLFPGH | no binding
